The values that follow come from PMC10402242.

The target in the assay is T1, macrophage migration inhibitory factor (MIF) (human (endogenous in MCF-7)), P14174.
T1 chain: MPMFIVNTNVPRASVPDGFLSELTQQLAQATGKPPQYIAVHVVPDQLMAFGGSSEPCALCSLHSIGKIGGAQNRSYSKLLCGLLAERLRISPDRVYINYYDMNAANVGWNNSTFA
Briefly: native MS; native top-down proteomics: whole cell lysates of MCF-7 and MCF-7-EGFR (EGFR-overexpressing) cells fractionated by native SEC, concentrated with molecular weight cutoff filters, direct ESI infusion FAIMS-MSn with HCD, Orbitrap detection; endogenous assemblies. To be noted: remark: other sources report otherwise.

B1: macrophage migration inhibitory factor (MIF), P14174 1-115 (natural protein)
chain: MPMFIVNTNVPRASVPDGFLSELTQQLAQATGKPPQYIAVHVVPDQLMAFGGSSEPCALCSLHSIGKIGGAQNRSYSKLLCGLLAERLRISPDRVYINYYDMNAANVGWNNSTFA
modifications: here or on the partner: proteoforms released from the trimers: unmodified, nitrosylated at C80, acetylated at K77, truncated; phosphorylated subunits also reported (site not given); proteoforms released from the trimers: unmodified, nitrosylated at C80, acetylated at K77, truncated; phosphorylated subunits also reported (site not given)
Turning to B1, the stoichiometry N came to 3.
